{"source": "paper PMC4005678", "about": "“Structural basis for Klf4 recognition of methylated DNA”", "binders": {"B1": {"name": "crystal 10-mer M/M (dsDNA)", "DNA 1": "GAGGCGTGGC", "DNA 2": "GCCACGCCTC", "modifications": "5mC at position 5 of strand 1 and position 5 of strand 2"}}, "target": "Klf4 ZnF1-3 DNA-binding domain (mouse, UniProt Q60793 396-483)", "sequence (Q60793 396-483)": "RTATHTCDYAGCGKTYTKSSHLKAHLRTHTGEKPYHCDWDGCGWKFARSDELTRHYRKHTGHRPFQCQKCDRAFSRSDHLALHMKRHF", "assay": "X-ray crystallography (1.85 A); 3 Zn2+; FP: 20 mM Tris-HCl pH 7.5, 150 mM NaCl, 5% (v/v) glycerol, 0.5 mM TCEP, ~22 C; probe 10 nM (WT) or 1 nM (E446A)", "conditions": "protein: recombinant; tags: GST tag removed; N-terminal GPLGS left; blunt"}
{"binder": "B1", "values": [{"measurement": "binding result", "result": "binds"}]}
